Measured values from US20230416396A1 (Regeneron, published 2023).
Read-outs that look alike come from different tables or passages of the source.

Columns and labels:
[1] = target: T1, human CD38 endogenously expressed on MOLP8 cells (human, UniProt P28907 1-300); experiment: flow cytometry on MOLP8 cells (endogenous hCD38), APC anti-human secondary
T1 construct: whole, on cells; also called hCD38
Procedure: (§1) The ability of the multispecific antigen binding molecules to bind cells was assessed using flow cytometry. Cell lines were chosen to determine the ability of both the anti-CD38 and anti-4-1BB arms to bind their targets. […] Binding was detected by using a labeled secondary antibody and measuring fluorescence on a flow cytometer.
HEK293 cells were lifted with trypsin, washed and resuspend in stain buffer (2% FBS in PBS). MOLP8 cells were washed and resuspended in stain buffer. Cells were added to wells of a 96 well V-bottom plate (3×10⁵ cells/well). A 1:4, 9-point, dose titration of test antibodies was diluted in stain buffer and added to cells to a final concentration ranging from 610 fM to 10 nM (a “no antibody” control was included as the ninth point (153fM), labeled as “secondary only”). Cells and antibodies were incubated for 30 min on ice and then washed in stain buffer. Cells were resuspended in 2 ug/ml allophycocyanin (APC) conjugated goat-anti human secondary antibody and incubated for 30 min on ice. Cells were then washed and resuspended in viability dye (according to the manufacturer's protocol) and incubated for 30 min on ice. Cells were then washed with stain buffer and resuspended in 2% PFA for 30 min on ice. After washing, cells were filtered and analyzed by flow cytometry to determine the geometric mean fluorescence intensity (gMFI), which was subsequently plotted using GraphPad Prism software. EC₅₀ values of the antibodies were determined from a 4-parameter logistic equation over a 9-point dose response curve (including secondary only control, representing the ninth point).

[2] = target: T2, human 4-1BB on cells (human, UniProt Q07011 24-255); experiment: cell-based or functional assay
T2 sequence (Q07011 24-255): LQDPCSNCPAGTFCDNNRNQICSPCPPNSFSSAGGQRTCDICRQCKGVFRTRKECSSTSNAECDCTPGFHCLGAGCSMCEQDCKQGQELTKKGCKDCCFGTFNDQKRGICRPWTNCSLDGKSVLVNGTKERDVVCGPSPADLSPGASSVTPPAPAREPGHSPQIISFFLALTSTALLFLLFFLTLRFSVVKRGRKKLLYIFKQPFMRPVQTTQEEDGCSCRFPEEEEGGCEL

[3] = target: T2, human 4-1BB on cells; experiment: cell-based or functional assay; remark: listed apart in the source
[4] = target: T2, human 4-1BB on cells; experiment: cell-based or functional assay; remark: listed apart in the source
[5] = target: T2, human 4-1BB on cells; experiment: flow cytometry on HEK293/h4-1BB cells, APC anti-human secondary
Procedure: as §1
HEK293 and HEK293/4-1BB cells were lifted with trypsin, washed and resuspended in stain buffer (2% FBS in PBS) and added to wells of a 96 well V-bottom plate (3×10⁵ cells/well). A 1:5, 9-point, dose titration of test antibodies was diluted in stain buffer and added to cells to a final concentration ranging from 1.3 pM to 100 nM (a “no antibody” control was included as the ninth point ([…]) labeled as “secondary only”). Cells and antibodies were incubated for 30 min on ice and then washed in stain buffer. Cells were resuspended in 2 ug/ml allophycocyanin (APC) conjugated goat-anti human secondary antibody and incubated for 30 min on ice. Cells were then washed and resuspended in viability dye (according to the manufacturer's protocol) and incubated for 30 min on ice. Cells were then washed with stain buffer and resuspended in 2% PFA for 30 min on ice. After washing, cells were filtered and analyzed by flow cytometry to determine the geometric mean fluorescence intensity (gMFI), which was subsequently plotted using GraphPad Prism software. EC₅₀ values of the antibodies were determined from a 4-parameter logistic equation over a 9-point dose response curve (including secondary only control).

B1: REGN7633 (bispecific antibody, human IgG4 S228P, kappa)
heavy 1: QVQLVQSGPEVKNPGAAVKVSCKASGYTFTRFGISWVRQAPGQGLEWMGWISVDNGNANYAQRFQGRVTMTTDTSTSTAYMELRSLRSDDTAVYYCAREWSIAAPGYLDYWGQGTLVTVSSASTKGPSVFPLAPCSRSTSESTAALGCLVKDYFPEPVTVSWNSGALTSGVHTFPAVLQSSGLYSLSSVVTVPSSSLGTKTYTCNVDHKPSNTKVDKRVESKYGPPGGGGSGGGGSGGGGSEVQLVESGGGLVQPGRSLRLSCAASGYTFDDYAMHWVRQAPGKGLEWVSGISWISDVIGYADSVKGRFTISRDNAKNSLYLQMNSLRAEDTALYYCAKDNGGIIVATHYYSYGMDVWGQGTTVTVSSASTKGPSVFPLAPCSRSTSESTAALGCLVKDYFPEPVTVSWNSGALTSGVHTFPAVLQSSGLYSLSSVVTVPSSSLGTKTYTCNVDHKPSNTKVDKRVESKYGPPCPPCPAPPVAGPSVFLFPPKPKDTLMISRTPEVTCVVVDVSQEDPEVQFNWYVDGVEVHNAKTKPREEQFNSTYRVVSVLTVLHQDWLNGKEYKCKVSNKGLPSSIEKTISKAKGQPREPQVYTLPPSQEEMTKNQVSLTCLVKGFYPSDIAVEWESNGQPENNYKTTPPVLDSDGSFFLYSRLTVDKSRWQEGNVFSCSVMHEALHNRFTQKSLSLSPGK
heavy 2: EVQLVESGGGLVQPGRSLRLSCAASGFTFDDYAMHWVRQAPGKGLEWVSGISWKSDNIGYADSVKGRFTISRDNAKNSLYLQMNSLRAEDTALYYCAKALGGWKFDYYYGMDVWGQGTTVTVSSASTKGPSVFPLAPCSRSTSESTAALGCLVKDYFPEPVTVSWNSGALTSGVHTFPAVLQSSGLYSLSSVVTVPSSSLGTKTYTCNVDHKPSNTKVDKRVESKYGPPCPPCPAPPVAGPSVFLFPPKPKDTLMISRTPEVTCVVVDVSQEDPEVQFNWYVDGVEVHNAKTKPREEQFNSTYRVVSVLTVLHQDWLNGKEYKCKVSNKGLPSSIEKTISKAKGQPREPQVYTLPPSQEEMTKNQVSLTCLVKGFYPSDIAVEWESNGQPENNYKTTPPVLDSDGSFFLYSRLTVDKSRWQEGNVFSCSVMHEALHNHYTQKSLSLSLGK
light: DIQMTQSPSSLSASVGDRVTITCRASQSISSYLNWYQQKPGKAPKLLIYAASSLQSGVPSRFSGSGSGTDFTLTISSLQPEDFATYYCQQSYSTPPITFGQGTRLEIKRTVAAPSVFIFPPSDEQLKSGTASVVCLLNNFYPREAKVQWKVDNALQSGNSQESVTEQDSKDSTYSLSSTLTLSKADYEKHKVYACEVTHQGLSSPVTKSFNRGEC
notes: 1+2 format, hIgG4P-PVA; also called CD38x4-1BB (1 + 2); 26812P2 x 25889P2 (IN) + 35388P2 (OUT)
- MAX gMFI [1]: 88000 gMFI

B2: REGN7150 (bispecific antibody, human IgG4 S228P, kappa)
heavy 1: QVQLVQSGAEVKKPGSSVKVSCKASGGPFRSSSFSWVRQAPGQGLEWMGGIIPILGKTNYAQKFQGRITIVTDESTTTVYMELSSLRSEDTAVFYCVRGSSLFDYWGQGTLVTVSSASTKGPSVFPLAPCSRSTSESTAALGCLVKDYFPEPVTVSWNSGALTSGVHTFPAVLQSSGLYSLSSVVTVPSSSLGTKTYTCNVDHKPSNTKVDKRVESKYGPPCPPCPAPPVAGPSVFLFPPKPKDTLMISRTPEVTCVVVDVSQEDPEVQFNWYVDGVEVHNAKTKPREEQFNSTYRVVSVLTVLHQDWLNGKEYKCKVSNKGLPSSIEKTISKAKGQPREPQVYTLPPSQEEMTKNQVSLTCLVKGFYPSDIAVEWESNGQPENNYKTTPPVLDSDGSFFLYSRLTVDKSRWQEGNVFSCSVMHEALHNHYTQKSLSLSLGK
heavy 2: QVQLVQSGAEVKKPGASVKVSCKASAYTFTSYGFSWVRQAPGQGLEWMGWISTSNGYTNYAQKIQDRVTMTTDTSTSTAYMELRSLRSDDTAVYYCASLSNWVSFFDYWGQGTLVTVSSASTKGPSVFPLAPCSRSTSESTAALGCLVKDYFPEPVTVSWNSGALTSGVHTFPAVLQSSGLYSLSSVVTVPSSSLGTKTYTCNVDHKPSNTKVDKRVESKYGPPCPPCPAPPVAGPSVFLFPPKPKDTLMISRTPEVTCVVVDVSQEDPEVQFNWYVDGVEVHNAKTKPREEQFNSTYRVVSVLTVLHQDWLNGKEYKCKVSNKGLPSSIEKTISKAKGQPREPQVYTLPPSQEEMTKNQVSLTCLVKGFYPSDIAVEWESNGQPENNYKTTPPVLDSDGSFFLYSRLTVDKSRWQEGNVFSCSVMHEALHNRFTQKSLSLSPGK
light: not shown
notes: 1+1 format control, hIgG4P-PVA, common 3-20 light chain; also called CD38x4-1BB (1 + 1); 26871P2 x 25921P
- EC50 of IL-2 release, T cells + NALM-6 [2]: 0.108 nM
- MAX IL-2 release, T cells + HEK293/CD20 + REGN2281 [2]: 63 pg/mL
- MAX IL-2 release, T cells + HEK293/CD20/CD38 + REGN2281 [2]: 593 pg/mL
- MAX IL-2 release, T cells + MOLP-8 + IsoC [2]: 48 pg/mL
- MAX IL-2 release, T cells + MOLP-8 + REGN5458 [2]: 32 pg/mL
- MAX IL-2 release, T cells + NALM-6 [2]: 122 pg/mL
- EC50 of IFNγ release, T cells + HEK293/CD20/CD38 + REGN2281 [3]: 0.78 nM
- EC50 of IFNγ release, T cells + MOLP-8 + REGN5458 [3]: 43.8 nM
- MAX IFNγ release, T cells + HEK293/CD20 + REGN2281 [3]: 1840 pg/mL
- MAX IFNγ release, T cells + HEK293/CD20/CD38 + REGN2281 [3]: 3950 pg/mL
- MAX IFNγ release, T cells + MOLP-8 + IsoC [3]: 56 pg/mL
- MAX IFNγ release, T cells + MOLP-8 + REGN5458 [3]: 1300 pg/mL
- MAX IFNγ release, T cells + NALM-6 [3]: 620 pg/mL
- MAX gMFI [1]: 210000 gMFI
- EC50 of IL-2 release, T cells + HEK293/CD20/CD38 + REGN1979 [4]: ~0.1 nM
- EC50 of IL-2 release, T cells + MOLP-8 + REGN5458 [4]: 63.4 nM
- MAX IL-2 release, T cells + HEK293/CD20 + REGN1979 [4]: 182 pg/mL
- MAX IL-2 release, T cells + HEK293/CD20/CD38 + IsoC [4]: 12 pg/mL
- MAX IL-2 release, T cells + HEK293/CD20/CD38 + REGN1979 [4]: 1300 pg/mL
- MAX IL-2 release, T cells + MOLP-8 + IsoC [4]: 163 pg/mL
- MAX IL-2 release, T cells + MOLP-8 + REGN5458 [4]: 308 pg/mL
- EC50 [5]: 2.86 nM
- MAX gMFI [5]: 2.4e+06 gMFI
